Residue numbers refer to the chain shown, from its start.

B1: PRT-102 (protein)
chain: MANQEIRYSEVTPYHVTSVWTKGVTPPAKFTQGEDVFHAPYVANQGWYDITKTFNGKDDLLCGAATAGNMLHWWFDQNKEKIEAYLKKHPDKQKIMFGDQELLDVRKVINTKGDQTNSELFNYFRDKAFPGLSARRIGVMPDLVLDMFINGYYLNVYKTQTTDVNRTYQEKDRRGGIFDAVFTRGDQSKLLTSRHDFKEKNLKEISDLIKQELTEGKALGLSHTYANVRINHVINLWGADFDSNGNLKAIYVTDSDSNASIGMKKYFVGVNSAGKVAISAKEIKEDNIGAQVLGLFTLSTGQDSWNQTN
B2: PRT-105 (protein)
chain: B1 chain with K81E, Q211K
B3: PRT-104 (protein)
chain: B1 chain with Y157T, Q211K
B4: PRT-103 (protein)
chain: B1 chain with D114S, Q211K
B5: PRT-106 (protein)
chain: MRNATEAYAKEVPHQITSVWTKGVTPLTPEQFRYNNEDVIHAPYLAHQGWYDITKTFNGKDNLLCGAATAGNMLHWWFDQNKTEIEAYLSKHPEKQKIIFNNQELFDLKAAIDTKDSQTNSQLFNYFRDKAFPNLSARQLGVMPDLVLDMFINGYYLNVFKTQSTDVNRPYQDKDKRGGIFDAVFTRGDQTTLLTARHDLKNKGLNDISTLIKQELTEGRALALSHTYANVSISHVINLWGADFNAEGNLEAIYVTDSDANASIGMKKYFVGINASGKVAISAKKIEGENIGAQVLGLFTLSSGKDIWQKLS
B6: PRT-109 (protein)
chain: B5 chain with Q15T, L45V, N58D, D207E, R220K, A260D, I273V, S276A
B7: PRT-108 (protein)
chain: B5 chain with L27P, L45T, N58D, S276A, K278H
B8: PRT-110 (protein)
chain: B5 chain with L27P, I40F, L45T, N58D, Q122A, G204T, L211I, A260S, I273V
B9: PRT-107 (protein)
chain: B5 chain with H47N, T56A, N58D, D173T, L211I, R220K, I273V, S276A, K278H
B10: PRT-167 (protein)
chain: MANQEIRYSEVTPYHVTSVWTKGVTPPTDFTQGEDVFHAPYKANQGWYDITKTFNGKDDLLCGAATAGNMLHWWFDQNKDQIKRYLEEHPEKQKINFNGEQMFDVKEAIDTKNSQLDSKLFEYFKEKAFPYLSTKHLGVFPDHVIDMFINGYRLSLTNHGPTPVKEGSKDPRGGIFDAVFTRGDQSKLLTSRHDFKEKNLKEISDLIKKELTEGKALGLSHTYANVRINHVINLWGADFDSNGNLKAIYVTDSDSNASIGMKKYFVGVNSAGKVAISAKEIKEDNIGAQVLGLFTLSTGQDSWNQTN
B11: PRT-171 (protein)
chain: B10 chain with T31I, Q32K, N44G
B12: PRT-168 (protein)
chain: B10 chain with T28E
B13: PRT-174 (protein)
chain: B10 chain with T28A, D29N, K42V, S114H, V268K, S270A, A271S, K282E, E283D, D284E
B14: PRT-172 (protein)
chain: B10 chain with T25K, T31I, Q32K, N44H
B15: PRT-169 (protein)
chain: B10 chain with S114D
B16: PRT-173 (protein)
chain: B10 chain with T28A, D29N, K42V, S114H, V268K, S270A, A271S, K282E, E283G, D284E
B17: PRT-170 (protein)
chain: B10 chain with T31I, Q32K, N44H
B18: PRT-175 (protein)
chain: MANQEIRYSEVTPYHITSVWTKGVTPPTDFTQGEDVFHAPYKANQGWYDITKTFNGKDDLLCGAATAGNMLHWWFDQNKTQIERYLKKHPEKQKINFNGEQMFDVKEAIDTKNSQTNSELFNYFKEKAFPYLSTKHLGVFPDHVIDMFINGYRLSLTNHGPTPVKRQSKDPRGGIFDAVFTRGDQSKLLTSRHDFKEKTLNEISQLIKQELTEGKALGLSHTYANVRINHVINLWGADFDAEGNLEAIYVTDSDSNASIGMKKYFVGVNSAGKVAISAKEIKEDNIGAQVLGLFTLSTGKDSWEKTN
B19: PRT-176 (protein)
chain: MANQEIRYSEVTPYHITSVWTKGVTPPTDFIKGEDVFHAPYKAHQGWYDITKTFNGGDDLLCGAATAGNMLHWWFDQNKTQIEAYLKKHPEKQKINFNGEQMFDVKEAIDTKNSQTNSELFNYFKEKAFPYLSTKHLGVFPDHVIDMFINGYRLSLTNHGPTPVKRQTKDPRGGIFDAVFGRGDQTKLLTSRHDFKEKTLNDISQLIKQELQSGKALGLSHTYANVRINHVINLWGADFDAEGNLEAIYVTDSDSNASIGMKKYFVGKNASGKVAISAKEIEDENIGAQVLGLFTLSTGKKSWEKTN
B20: PRT-177 (protein)
chain: B19 chain with T17K, S18T, K22D, T25K, T53A, N55D, K79S, E91D, Q185S

The target of this data set is pooled human IgG (human IgG1,2,3 and 4).
On to B1, for which the Enzyme Activity Endpoint Assay: Fab′2 stood at 607 ng/µL, the Enzyme Activity Endpoint Assay: Fc is 160 ng/µL, the Enzyme Activity Endpoint Assay: IgG was 0 ng/µL and the Enzyme Activity Endpoint Assay: scIgG was determined as 0 ng/µL.

B2: the Enzyme Activity Endpoint Assay: Fab′2 stood at 663 ng/µL, the Enzyme Activity Endpoint Assay: Fc was 192 ng/µL, the Enzyme Activity Endpoint Assay: IgG was found to be 0 ng/µL and the Enzyme Activity Endpoint Assay: scIgG turned out to be 13 ng/µL.

Consider B3, for which the Enzyme Activity Endpoint Assay: Fab′2 came to 259 ng/µL, the Enzyme Activity Endpoint Assay: Fc amounted to 130 ng/µL, the Enzyme Activity Endpoint Assay: IgG came out at 0 ng/µL and the Enzyme Activity Endpoint Assay: scIgG was 0 ng/µL.

The protein B4 registered an Enzyme Activity Endpoint Assay: Fab′2 of 544 ng/µL, an Enzyme Activity Endpoint Assay: Fc of 158 ng/µL, an Enzyme Activity Endpoint Assay: IgG of 0 ng/µL and an Enzyme Activity Endpoint Assay: scIgG of 0 ng/µL.

As to B5, the Enzyme Activity Endpoint Assay: Fab′2 was 739 ng/µL, the Enzyme Activity Endpoint Assay: Fc is 202 ng/µL, the Enzyme Activity Endpoint Assay: IgG is 0 ng/µL and the Enzyme Activity Endpoint Assay: scIgG was 0 ng/µL.

Consider B6, for which the Enzyme Activity Endpoint Assay: Fab′2 was 457 ng/µL, the Enzyme Activity Endpoint Assay: Fc worked out at 181 ng/µL, the Enzyme Activity Endpoint Assay: IgG was 28 ng/µL and the Enzyme Activity Endpoint Assay: scIgG worked out at 0 ng/µL.

As for B7, the Enzyme Activity Endpoint Assay: Fab′2 was determined as 666 ng/µL, the Enzyme Activity Endpoint Assay: Fc was 203 ng/µL, the Enzyme Activity Endpoint Assay: IgG stood at 0 ng/µL and the Enzyme Activity Endpoint Assay: scIgG came to 0 ng/µL.

In the case of B8, the Enzyme Activity Endpoint Assay: Fab′2 was 575 ng/µL, the Enzyme Activity Endpoint Assay: Fc was 136 ng/µL, the Enzyme Activity Endpoint Assay: IgG turned out to be 0 ng/µL and the Enzyme Activity Endpoint Assay: scIgG was 0 ng/µL.

Protein B9 had an Enzyme Activity Endpoint Assay: Fab′2 of 553 ng/µL, an Enzyme Activity Endpoint Assay: Fc of 200 ng/µL, an Enzyme Activity Endpoint Assay: IgG of 0 ng/µL and an Enzyme Activity Endpoint Assay: scIgG of 117 ng/µL.

In turn, B10 displayed an Enzyme Activity Endpoint Assay: Fab'2 of 572 ng/µL, an Enzyme Activity Endpoint Assay: Fc of 161 ng/µL, an Enzyme Activity Endpoint Assay: IgG of 0 ng/µL and an Enzyme Activity Endpoint Assay: scIgG of 0 ng/µL.

As to B11, the Enzyme Activity Endpoint Assay: Fab'2 came out at 765 ng/µL, the Enzyme Activity Endpoint Assay: Fc turned out to be 187 ng/µL, the Enzyme Activity Endpoint Assay: IgG was determined as 23 ng/µL and the Enzyme Activity Endpoint Assay: scIgG was 0 ng/µL.

B12 showed an Enzyme Activity Endpoint Assay: Fab'2 of 628 ng/µL, an Enzyme Activity Endpoint Assay: Fc of 159 ng/µL, an Enzyme Activity Endpoint Assay: IgG of 0 ng/µL and an Enzyme Activity Endpoint Assay: scIgG of 0 ng/µL.

In turn, B13 yielded an Enzyme Activity Endpoint Assay: Fab'2 of 586 ng/µL, an Enzyme Activity Endpoint Assay: Fc of 160 ng/µL, an Enzyme Activity Endpoint Assay: IgG of 0 ng/µL and an Enzyme Activity Endpoint Assay: scIgG of 0 ng/µL.

Turning to B14, the Enzyme Activity Endpoint Assay: Fab'2 was determined as 821 ng/µL, the Enzyme Activity Endpoint Assay: Fc is 215 ng/µL, the Enzyme Activity Endpoint Assay: IgG stood at 0 ng/µL and the Enzyme Activity Endpoint Assay: scIgG stood at 0 ng/µL.

In turn, B15 returned an Enzyme Activity Endpoint Assay: Fab'2 of 658 ng/µL, an Enzyme Activity Endpoint Assay: Fc of 188 ng/µL, an Enzyme Activity Endpoint Assay: IgG of 0 ng/µL and an Enzyme Activity Endpoint Assay: scIgG of 0 ng/µL.

Turning to B16, the Enzyme Activity Endpoint Assay: Fab'2 turned out to be 912 ng/µL, the Enzyme Activity Endpoint Assay: Fc turned out to be 226 ng/µL, the Enzyme Activity Endpoint Assay: IgG amounted to 0 ng/µL and the Enzyme Activity Endpoint Assay: scIgG was found to be 30 ng/µL.

B17 showed an Enzyme Activity Endpoint Assay: Fab'2 of 755 ng/µL, an Enzyme Activity Endpoint Assay: Fc of 193 ng/µL, an Enzyme Activity Endpoint Assay: IgG of 0 ng/µL and an Enzyme Activity Endpoint Assay: scIgG of 0 ng/µL.

Turning to B18, the Enzyme Activity Endpoint Assay: Fab'2 was found to be 497 ng/µL, the Enzyme Activity Endpoint Assay: Fc amounted to 147 ng/µL, the Enzyme Activity Endpoint Assay: IgG was determined as 0 ng/µL and the Enzyme Activity Endpoint Assay: scIgG worked out at 0 ng/µL.

For the protein B19, the Enzyme Activity Endpoint Assay: Fab'2 was 310 ng/µL, the Enzyme Activity Endpoint Assay: Fc was found to be 140 ng/µL, the Enzyme Activity Endpoint Assay: IgG turned out to be 0 ng/µL and the Enzyme Activity Endpoint Assay: scIgG amounted to 86 ng/µL.

B20: the Enzyme Activity Endpoint Assay: Fab'2 came out at 67 ng/µL, the Enzyme Activity Endpoint Assay: Fc came out at 105 ng/µL, the Enzyme Activity Endpoint Assay: IgG amounted to 131 ng/µL and the Enzyme Activity Endpoint Assay: scIgG was 426 ng/µL.

The record behind these values is patent US20250027068.
